The data set deals with bacteriophage λ cII protein (UniProt P03042).

On to E. coli FtsH, for which the fold induction of β-galactosidase (induced/uninduced), strain SYKD005; reference SYKD004 without plasmid ftsH: 21 is 10 fold; the “fold induction of β-galactosidase, strain SYKD005” value was “the fold induction of β-galactosidase was reduced to half when cII was induced with IPTG in the presence of FtsH”; the “β-galactosidase level against arabinose used to induce FtsH, strain SYKD007” value was “in SYKD007 the level of β-galactosidase appeared to be directly correlated to the amount of arabinose used for induction”.

Turning to “FtsH(E415A), protease-deficient mutant of FtsH”, the fold induction of β-galactosidase (induced/uninduced), strain SYKD006; reference SYKD004 without plasmid ftsH: 21 was 26 fold; the “fold induction of β-galactosidase, strain SYKD006” value is “This reduction in the expression of lacZ was not observed in the presence of FtsH (E415A)”; the “β-galactosidase level against arabinose used to induce FtsH(E415A), strain SYKD008” value is given as “inducing the strain SYKD008 at different concentrations of arabinose did not have any effect on the levels of β-galactosidase being produced”.

The record behind these values is patent US20030027251.
